This data set can be described thus: soluble fraction after stress (log2 fold change); higher = more stays soluble; pooled small domains, quantitative proteomics. Particulars: stress: pH 4. The method in brief: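 Small protein domains from pooled custom libraries were exposed to pH 4, then quantified with high-throughput quantitative proteomics. The fold change in how much of each domain remains soluble is read as aggregation propensity. It is given as log2, with higher values meaning more stayed soluble.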

Results on 69 sequences are retold here after the domain aggregation screens of Martell et al. (2025).

As for “HMKSVFQPIYEDLLSRIQDGRLLPGMPLPSENALAVQYGTSRPTIRRAIGLLVEKSLVIRQPGIGSIVAS”, the “soluble fraction (log2)” value is -0.493.
For “HMKTALQENVRAYRLERKWTQQALAEALEVSVGAVSKWESGVSRPELETLMRLAELFGVSTDALLGF”, the “soluble fraction (log2)” value is -1.09.
Under “HMKTAWDELNEVIEAYRGQESALIEVLHKAQEIMGYLPRDVQEAIAEGLHVPLNKVYGVVSFYHHFSV” stands -0.204; under “HMKTERTVRVQDQHLHYTLEEKPIKNVNLRIRPDGSVYVSAPFGTSRTLIDDFVASKSKQILAIQQAQSAM”, 0.22; under “HMKTGIGIVEANGGLRLRSQASTSSDVLSTAHNGDNVVVIRQVGNWYLVNYNLKIGYMHSDYITFKE”, -1.3.
Then “HMKTGNIIAVSLVWKGKYYMIRMFFPSAARPSRADVQTEIEKVYPGSKLSSFSVSDYEPGQPLLQV”, with -0.146; and “HMKTGTTGLIGEIGVVKKALTPEGKVFVHGELWRAVSKTASPEGTLVQVIKINNLVLEVEKV”, with 0.0324.
On to “HMKTILEKDQRLAKYISYLIKRKRLSPEQVIEHLKTDDHGYEKYPKSINTIYAAIDKGLIPSVTRQDM”, for which the “soluble fraction (log2)” value was not below 0.43.
Under “HMKTKMTPELTTVIEAQIQKEWSPEQISGWLKKTHPVSVSHQRIYQHIQADRQQGGTLHQHLRQAK” stands -0.2; under “HMKTKTFSPGEIVKIQTRDKSWQGTILESHDPEIILLKLTTGYNIGIRENEIINAKVIEKSKKDVKDAE”, 0.176; under “HMKTKTIMSTGAREDLVKMINEYYYSKNYIITEDNRIYNTKTEKFMDDLSVKFYRGRWKVIRN”, 0.0289.
Consider “HMKTLDATQRLKLNGEGIIVFNFGKYVDQPVVEIFKKERGYFAWMMSKDFSQQVKNIITKIHNEEILGK”, for which the “soluble fraction (log2)” value was -0.344.
As to “HMKTLKHYFASIAHEFGREEAELMLLSVFKTPFEQRLMLFMKDPALTEAQVQQLDNLVRQRKQGVPLPYIL”, the “soluble fraction (log2)” value was -0.287.
Then “HMKTLPADPTVKNFSYTVVDGEIYYRENSIMTQIELSDNAKGRVAGMVELRQIVNELIDQQLND”, with -1.52; and “HMKTMEQSYIGRKIILDENVEDSALIKFEGIYWTFKSVSGPLKKGTEVEIIGIEGNKILIKNK”, with 0.181.
Under “HMKTPIEFGSVYNDPVRYVIGMSIKSAESINQAIYDMMKIFGDENNMNKFDSLPDEQAVLDMVNSF” stands -0.208.
For “HMKTRIQDLRKELGVTQSELADAVDVTRQTIISLEGGRYKASLVLAHKLAQFFHVTIEELFIFD”, the “soluble fraction (log2)” value is -0.918.
Regarding “HMKTRNISGNHEAVWQAVRSRTQAGHPTTRAVIMDDLKAQGLNTQKFSRWLKKLVDDGSVYMDGDTIIMGK”, the “soluble fraction (log2)” value is -0.12.
As to “HMKTRTVVLKSAGGNKIAVIKIIKEITGLGLVEAKAVADNGGNIKENIPAEEAEAIKTQLTEAGAEVEL”, the “soluble fraction (log2)” value is -0.242.
On to “HMKTRYPNVYQDEKGKFFYQIFIGTDTNGRKKLKKGRRDALGHPFSSAYQASKEAKRVQALYANVS”, for which the “soluble fraction (log2)” value is -0.0451.
Then “HMKTSTGSAMYLTLDLAEKYAGQAFTLVHKKADGTFEYLYATADVDGKVKFGPVYELSPFMLVKGQL”, with -0.674; and “HMKTSVGSKMMVMANNLSIRKSANLLSEKLADLSKGDMVEYISSTNGWNKVRYNGYVGYVSSYYLKDTGEV”, with 0.375.
In the case of “HMKTTKDSVFEYIQKELMTNEEYKQGINTNVIAQHFGLQRSNISTILNELVKEDRLEKTNTRPVLYFLPQ”, the “soluble fraction (log2)” value was found to be 0.184.
In the case of “HMKTTKRERARAKLIQLLENEDRPAKEIYAGLGDIGVGSRTVEKVKKELQVTTYRSGGSWYWSLPKP”, the “soluble fraction (log2)” value was -0.147.
Under “HMKTVKPSQIPYSEFLKLVETDKINDVSMVGRNIIGHLDDGSKFKTYTPPNDPTLIEKLSSHNIVINAAPE” stands 0.134; under “HMKTVLDSLLRILDSKELDIVVLRHIVGLTLTEIAKEKDMKKGTVFWMYNRAVKKLRLESERMGL”, -0.977; under “HMKTVPNVEGEKDGTAQSAIESAGLKVGKVTYQYDDNTSKGLVISQSVKGGEKVKPNTAIDLVVSNGPK”, 0.22.
In the case of “HMKTYSEAQLKIALESLIENGKKQGYLTFQEINEILPDGIINTQDLKVIISILKETGIVVAKEKPEINIDV”, the “soluble fraction (log2)” value was 0.273.
Take “HMKVEFTPAYLKKFKANKNAWKFYEAQTNTYKKQSAWYVISAKQEETRLRRLDLLIYDSENGIHIKPLRR”: the “soluble fraction (log2)” value stood at 0.211.
Consider “HMKVFTEDEMLEKIKEYLSTNSYINRRVMETQFGLRQNIALKWLKHFTEIGVLRKEGERNSPIYFLNN”, for which the “soluble fraction (log2)” value was found to be 0.154.
For the sequence “HMKVKIFNGMKLVTNSTGLTVDGKPAALDESNADAKTYSQGLYVFIVYQSGKIAVMQDGKFLGYA”, the “soluble fraction (log2)” value amounted to 0.301.
Under “HMKVLNVLESEIVRLFKQGQQKDNIRDNIYKTHGQHYNNKKSFNVVFGRKWNSLLEQGFLES” stands 0.241; under “HMKVRDTQYIIEAAISKNVIRKSKNIYYYGTDIIGRSLEDAIASLNDKKNQDIKMTILQEIES”, 0.0993; under “HMKVSKNKIVKGMGFHHVALKAVDFDASFKFYTEGLGMKFYTSWGEGNGKIAMLDLGDGGILELFA”, 0.22.
As to “HMKVTGITDDILQRLKQQKGYLMLSDKSSPDEIYAAFGVSKKVFKQAIGTLFKQRQIIIEEQGIRLAN”, the “soluble fraction (log2)” value is 0.201.
Under “HMKVTQDIIFKRNGEEIKSKVLEITPDLIIYIDYSRADNIAREINISEVNMIIYKNGTSEIFSRPEE” stands -1.15; under “HMKVTTGIDGLIGEEGVALSDFSGKGKIMVHGEIWNAEFSGEVKKGEVLLVEKANGMTLITRKKN”, -0.401; under “HMKYKWLAGQLRRELLENGGKKGYKLPTELELARRYQLSRQTVRRALQLLEEEGLILRRQGSGAYATGKPP”, 0.0629.
Then “HMKYLREEDYLPIGSIIRLDDRNFRVDHVNFMFKSVSLQDMDLTNSGQPIFRSESLPHIRELYEQQQNELV”, with -1.09.
Then “HMKYYIYQGLGDSGELTKIAEVTDVKTYTATGLEANTKYRFAVSAYNGLRESSKSNIITVTT”, with -0.325.
Consider “HMLADIGGRIADLRREVGLTQGELAEKADISVVHLSNIELGKKTPGLSTLIRIAEALDVATDWILQA”, for which the “soluble fraction (log2)” value is -1.13.
Then “HMLAFDKDDSGAVAEIILVLGRYWMDFSHKKYPAAEGVALRHKGLSHIFTVLRPYLSTPASELIGERLRR”, with 0.22.
Under “HMLAGVDTLADRELEVFQMLGRGKSTKEIAQVLNLGESTVETYRARIKEKLQLRSAAELYLRAGQWVRDHG” stands -0.426.
With “HMLAIKKGGIFAILGPNGSGKSTFSKVLAGHPAYTVVDGDIFFKGLSILDLEPEERSHLGIFLAFQ”, the “soluble fraction (log2)” value was -0.151.
With “HMLAKRYLVYGSGSLNSAYPDTKNIAYGIDSGKGFFLVGILTENEASKLKLKGYYVIEDFPLDFH”, the “soluble fraction (log2)” value is -0.921.
As for “HMLAPLAEMRGDTLDRLEKAVLELFSSRDFHEVSLQDVARRANVSLQTIYKYFGSKEALVYTMLDTLLGR”, the “soluble fraction (log2)” value was -0.87.
On to “HMLAQVSDEGPIRAMVEAVMARSTQQLEDYKNGKVKLRQYFFGEVMKAAKGKANPTVINKLLDEMLPETL”, for which the “soluble fraction (log2)” value amounted to 0.0418.
On to “HMLAQYPGQVFSKEQIYNQVWKEPYYGVEDNVMSLIRRIRKKIEPDPSRPIYILTVWGIGYKFNN”, for which the “soluble fraction (log2)” value was determined as 0.0406.
Consider “HMLARFSGIALNTWTQADVERTFGPPMLVERVARFDGDIWTYRFMDDYEPRMAHIHIDRAGTVRQLVF”, for which the “soluble fraction (log2)” value was -1.74.
Take “HMLAVEKIEFVGNERIAAADLESALSALYDRPMTTISDDEIAKLLSGFSLIETFTSQAEPPHTLRVNIRE”: the “soluble fraction (log2)” value is -0.452.
Under “HMLDEKFLSELMLALLRNHRRGLRAEVLLHKVRSNMELDGYKSLLVGVGRMEMWELAREIIDFVKAEG” stands -2.07.
With “HMLDGFEVGMTVMRKPGTETGFTGWPPFADKDEFPVIERIDTSDSTLLLRFNDTSWWINASLVEPSDV”, the “soluble fraction (log2)” value was -0.729.
Turning to “HMLDIPEVGQAVQVRGRLGTVFSVAPYDGREGRLHLVTVDYLDDARPPENDEILWEIESGARILG”, the “soluble fraction (log2)” value is -0.763.
Turning to “HMLDLNEVEFYAIENQLKENLKIDSKRFYELVPLIKGYQEDDIIQVLRWLIDNNRIIRHKDESLTWHS”, the “soluble fraction (log2)” value was -1.02.
For “HMLDLSEEEQKIVSILEKQGNLQINSLVVEADIPVHKINAILFELEMKGVVRVLALSLIHISEP”, the “soluble fraction (log2)” value was -0.628.
Then “HMLDPVLQREKDESFTDYHIRLFKNKDTYHIDTKTIATLLNKDQGTNYDESKWRKDFKQYERWNDYIMSKN”, with -0.155; and “HMLDPYNVLGVPRDAGMDEIKKAYRKLSRTYHPDANIDNPNKAQAEEKFKQIQEAYQQIVKERTE”, with -0.152.
Turning to “HMLDQAVPVFETPKYAVSYIQNRLVEMKAASPEEAASRFYESISESERRGLFEALLIKEAEES”, the “soluble fraction (log2)” value was -0.821.
Then “HMLDQGTQSRYQIMDGVRALITGDWSSHGAGLVRELSQEVARTSGLTATSERTFFVPFSALS”, with -0.111.
For the sequence “HMLDSDARRRGLIEYLSLNGYATMRQLAGEFDVSINTIQRDITYLARYYPLETAYGRYGGGVYFEQNWQ”, the “soluble fraction (log2)” value is -1.04.
Then “HMLDSGNPILPYKLSLLANVDIRTVRNAISAGELVAFKSEFDGEVYVENGSARRWLHGRRGFKPTLK”, with -0.772; and “HMLDSNILTLIKELKIRHHFTATQTHQLEKVIQQAHALGLDNSEIRSLANSSPSAKSLINDLNQKLEPLRL”, with not below 0.43; and “HMLDTELEANLRSQRDQKLVEELDPIVTNPLRWAELTSDKQTEWTQYRTDLLNVPQQSGFPTNVTWPEKP”, with -0.401.
For “HMLDVFSAEQVADVLSVSKRNLETWANNGKLIPDFIHGEVALYSKKQLEQFEQFQRFFNSSWDAERLIQP”, the “soluble fraction (log2)” value is -1.24.
Under “HMLDVGDQLVKKLKDNDSLDFHFVNSKEANKGLKDGDYYMVITIPSNFSKNATTLLDKNPKKMVLNYTTNP” stands 0.13; under “HMLEAKQIQDNWESLIKLIEDNFTGERKENLLKMYTHFQDRMMFAPASSKEHFHNAFPGGYVEHVL”, -0.942; under “HMLEDIDNSIKKEIILEHYDKMLEFHGDYGAIIFRKLLHAYSKGYTGANEFRDLVNQISDKNIMRDLIESF”, -1.17.
Then “HMLEEIIDVKRFLVENVRGVSEKTALAILSEFGDKTMDVLRNSPNELYRIKGMSGKRIEVIKDAIANATAS”, with -1.33; and “HMLEINTIIGNNLKKIRQEKKLTLDELAGITGVSKGMLSQIEKGTTNPTINTIWKISNGLNVPYTYLLEDD”, with -0.0827.
